Square brackets hold non-standard residues; d marks the D form. Peptide text beside a SMILES is read from it. Hyp = O=C(O)[C@@H]1C[C@@H](O)CN1

The record followed here is publication PMC8847575, “HSL1 and BAM1/2 impact epidermal cell development by sensing distinct signaling peptides” (Nature Communications, 2022).

The target in one assay is T1, HSL1 ectodomain (Arabidopsis thaliana, UniProt Q9SGP2).
T1 construct: HSL1 (residues 17-618, AT1G28440); azurocidin or Drosophila BIP signal peptide (secretion signal) (N); made in house; host or cells: Trichoplusia ni Tnao38 insect cells (baculovirus)
T1 sequence (Q9SGP2 17-618): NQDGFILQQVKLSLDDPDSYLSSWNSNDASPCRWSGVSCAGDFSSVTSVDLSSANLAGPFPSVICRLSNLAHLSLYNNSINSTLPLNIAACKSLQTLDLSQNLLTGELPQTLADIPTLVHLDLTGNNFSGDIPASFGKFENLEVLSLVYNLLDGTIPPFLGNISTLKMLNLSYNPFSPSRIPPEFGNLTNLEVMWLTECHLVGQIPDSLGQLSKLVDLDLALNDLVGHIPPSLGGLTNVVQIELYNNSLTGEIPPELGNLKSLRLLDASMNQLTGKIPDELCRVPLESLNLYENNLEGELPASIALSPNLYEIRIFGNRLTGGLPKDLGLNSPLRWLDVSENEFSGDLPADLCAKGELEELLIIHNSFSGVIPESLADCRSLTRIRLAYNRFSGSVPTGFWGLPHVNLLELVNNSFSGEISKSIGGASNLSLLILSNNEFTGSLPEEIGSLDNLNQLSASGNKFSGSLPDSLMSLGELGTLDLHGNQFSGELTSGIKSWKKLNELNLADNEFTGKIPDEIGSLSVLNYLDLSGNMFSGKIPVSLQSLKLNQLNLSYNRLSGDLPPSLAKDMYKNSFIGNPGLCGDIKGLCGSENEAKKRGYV
The assay is described as follows: GCI binding kinetics, peptide vs immobilised HSL1. The following applies: HSL1 on surface, peptide as analyte, 25 °C, pH 5, one-to-one binding model, read-out: ka association rate constant, peptide vs HSL1 (GCI). The protocol:
25 μM of HSL1 were biotinylated with the biotin ligase BirA[60] (2 μM) for 1 h at 30 °C, in a volume of 200 μl. The buffer used in the reaction was: 25 mM Tris pH 8, 150 mM NaCl, 5 mM MgCl2, 2 mM 2-Mercaptoethanol, 0.15 mM Biotin, 2 mM ATP. Biotinylated proteins were purified by size-exclusion chromatography in 20 mM citric acid pH5, 150 mM NaCl and subsequently used in GCI experiments.
GCI experiments were performed with the Creoptix WAVE system (Creoptix AG, Switzerland) using 4PCP WAVE chips (thin quasiplanar polycarboxylate surface; Creoptix, Switzerland). Chips were first conditioned with borate buffer (100 mM sodium borate pH 9.0, 1 M NaCl; Xantec, Germany). Chips were activated with 1:1 mix of 400 mM N-(3-dimethylaminopropyl)-N′-ethylcarbodiimide hydrochloride and 100 mM N-hydroxysuccinimide (Xantec, Germany). Streptavidin (50 µg/ml; Sigma, Germany) in 10 mM sodium acetate pH 5.0 (Sigma, Germany) was immobilized on the chip surface until saturation was reached, followed by passivation of the surface with BSA (50 µg/ml; Sigma, Germany) in 10 mM sodium acetate pH5.0, and a final quenching step with 1 M ethanolamine pH 8.0 (Xantec, Germany). Then, biotinylated HSL1 (ligand) (80–100 μg/ml) was captured on the streptavidin surface until the desired density was reached. Normal kinetic analysis were performed to measure the binding of IDL peptides (analyte) to HSL1. Experiments were performed at 25 °C with a 1:2 dilution series from a maximum concentration of 5–50 μM peptide, in 20 mM citrate pH 5, 250 mM NaCl, 0.005% Tween-20 v/v. To analyze the interaction kinetics of the co-receptor SERK1, 2 µM of the protein was used as a higher dilution with running buffer containing 5 µM of the IDL peptides being tested. Blank injections were used for double referencing and a dimethylsulfoxide (DMSO) calibration curve for bulk correction. Analysis and correction of the obtained data were performed using the Creoptix WAVE control software (correction applied: X and Y offset; DMSO calibration; double referencing). One-to-one binding model was used for both experiments.

Assay [1] has as its target T2, BAM1 (BARELY ANY MERISTEM 1) ectodomain (Arabidopsis, UniProt O49545 20-637).
T2 chain: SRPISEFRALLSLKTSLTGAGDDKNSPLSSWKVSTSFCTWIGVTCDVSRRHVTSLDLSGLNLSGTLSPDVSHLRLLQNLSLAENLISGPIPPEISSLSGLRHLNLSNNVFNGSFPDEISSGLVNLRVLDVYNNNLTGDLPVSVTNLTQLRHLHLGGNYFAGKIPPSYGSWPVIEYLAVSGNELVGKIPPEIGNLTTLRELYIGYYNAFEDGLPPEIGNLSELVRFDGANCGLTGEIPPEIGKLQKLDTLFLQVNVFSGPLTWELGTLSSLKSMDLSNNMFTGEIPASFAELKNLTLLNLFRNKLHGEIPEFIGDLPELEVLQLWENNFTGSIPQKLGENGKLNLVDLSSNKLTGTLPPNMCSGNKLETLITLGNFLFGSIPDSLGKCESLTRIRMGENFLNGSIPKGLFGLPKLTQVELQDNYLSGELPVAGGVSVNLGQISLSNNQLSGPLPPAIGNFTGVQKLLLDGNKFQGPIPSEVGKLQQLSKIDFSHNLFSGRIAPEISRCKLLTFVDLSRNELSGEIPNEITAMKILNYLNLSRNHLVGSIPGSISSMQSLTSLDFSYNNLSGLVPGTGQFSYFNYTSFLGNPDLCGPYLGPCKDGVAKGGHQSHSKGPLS
The assay is described as follows: ITC.

Assay [2] has as its target T3, BAM1 (BARELY ANY MERISTEM 1) ectodomain (Arabidopsis, UniProt O49545 20-637).
T3 construct: BAM1 LRR receptor kinase ectodomain, Arabidopsis, residues 20-637, AT5G65700; codon optimised; secreted with an azurocidin or Drosophila BiP signal peptide; also called BAM1 extracellular domain; BAM1 LRR ectodomain; source: Trichoplusia ni Tnao38 cells (baculovirus), secreted, purified (Ni2+, Strep-Tactin, TEV cleavage, second Ni2+, SEC)
T3 sequence (looked up): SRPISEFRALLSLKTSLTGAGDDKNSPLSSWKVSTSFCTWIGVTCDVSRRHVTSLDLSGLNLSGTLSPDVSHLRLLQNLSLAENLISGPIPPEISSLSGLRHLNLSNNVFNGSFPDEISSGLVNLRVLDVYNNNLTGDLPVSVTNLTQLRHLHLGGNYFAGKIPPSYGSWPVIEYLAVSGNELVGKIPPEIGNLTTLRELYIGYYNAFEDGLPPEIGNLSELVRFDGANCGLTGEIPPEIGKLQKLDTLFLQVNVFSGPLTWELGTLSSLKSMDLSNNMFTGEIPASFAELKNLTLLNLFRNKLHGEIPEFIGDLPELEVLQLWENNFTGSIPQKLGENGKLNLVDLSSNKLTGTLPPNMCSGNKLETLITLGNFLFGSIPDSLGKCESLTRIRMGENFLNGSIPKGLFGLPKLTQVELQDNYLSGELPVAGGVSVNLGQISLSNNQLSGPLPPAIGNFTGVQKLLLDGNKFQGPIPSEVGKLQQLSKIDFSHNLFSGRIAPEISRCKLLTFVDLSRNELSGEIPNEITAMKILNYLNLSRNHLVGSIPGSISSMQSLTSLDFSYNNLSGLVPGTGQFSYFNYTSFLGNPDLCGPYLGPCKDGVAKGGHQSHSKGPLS
The assay is described as follows: ITC; peptide (75 to 600 µM) injected into 10 to 30 µM HSL1 or BAM1 ectodomain in the cell; 25 °C; 20 mM sodium citrate pH 5.0, 150 mM NaCl; N fitted to 1. The following applies: both partners purified. Background: In ITC the heat of successive injections is recorded.

Assay [3] concerns the target T2, BAM1 (BARELY ANY MERISTEM 1) ectodomain. The assay is described as follows: ITC; R109P L110I.

Consider `CC(C)[C@H](NC(=O)[C@@H]1CCCN1)C(=O)N1CCC[C@H]1C(=O)N[C@@H](C)C(=O)N[C@@H](CO)C(=O)N[C@@H](C)C(=O)N1C[C@H](O)C[C@H]1C(=O)N[C@@H](CO)C(=O)N[C@@H](CCCNC(=N)N)C(=O)N[C@@H](CCCCN)C(=O)N[C@@H](Cc1c[nH]cn1)C(=O)N[C@@H](CC(N)=O)C(=O)O` [IDL4, IDA-LIKE] (H-PVPASA[Hyp]SRKHN-OH), for which, on HSL1 ectodomain, the kon is 460000 M⁻¹ s⁻¹.

B1: CLE9^Hyp112PHyp115P peptide (peptide, UniProt Q9FZE4 109-120, looked up)
peptide: RLVPSGPNPLHN
modifications: Pro112 and Pro115 not hydroxylated
notes: CLE9 mature dodecapeptide with plain proline at 112 and 115 in place of hydroxyproline; also called CLE9 with Hyp in positions 4 and 7 replaced by Pro
In general, Kd refers to the concentration at which binding is half-saturated. Higher therefore signals lower affinity. Turning to B1, the Kd is 3 nM in assay [1] and around 5 nM in assay [2].

B2: CLE9^V111P peptide (peptide, UniProt Q9FZE4 109-120, looked up)
peptide: RLPPSGPNPLHN
notes: CLE9 mature dodecapeptide with Val111 changed to Pro; also called replacement of the third Val by a Pro
Consider B2, for which binding in assay [2] was characterised by a dissociation constant (Kd) of 3000 nM.

B3: CLE9 variant with the second residue substituted by the corresponding one of IDA (peptide)
chain: RIVPSGPNPLHN
For B3, in assay [3], the affinity, expressed as Kd, was 129 nM.
